Key:
cyno PD-1_Fc (cyno) = assay: bio-layer interferometry (ForteBio), Fab in solution, cyno PD-1_Fc on sensor tip
[1] = molecular target: human PD-1 on cells (CHO cells; T cells in the mixed lymphocyte reaction) (human) (UniProt Q15116); assay: cell-based or functional assay
[2] = molecular target: human PD-1 on cells (CHO cells; T cells in the mixed lymphocyte reaction) (human) (UniProt Q15116); assay: flow cytometry, remaining PD-L2-FITC signal after 100 nM IgG; competitor PD-L2-FITC

Sequence of human PD-1 on cells (CHO cells; T cells in the mixed lymphocyte reaction) (human) (Q15116 25-288 limits assumed): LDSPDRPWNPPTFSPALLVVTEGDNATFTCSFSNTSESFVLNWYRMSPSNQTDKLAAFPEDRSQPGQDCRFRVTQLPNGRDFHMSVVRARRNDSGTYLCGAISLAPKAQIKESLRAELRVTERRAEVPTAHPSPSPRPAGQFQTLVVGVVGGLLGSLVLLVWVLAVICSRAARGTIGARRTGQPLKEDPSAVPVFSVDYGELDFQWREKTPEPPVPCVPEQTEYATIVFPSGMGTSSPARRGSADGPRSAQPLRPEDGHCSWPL
Sequence of Fab of pembrolizumab (VH): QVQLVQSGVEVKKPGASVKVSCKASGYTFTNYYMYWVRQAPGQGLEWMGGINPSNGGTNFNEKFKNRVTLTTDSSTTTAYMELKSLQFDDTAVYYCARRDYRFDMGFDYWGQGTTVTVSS
Sequence of Fab of pembrolizumab (VL): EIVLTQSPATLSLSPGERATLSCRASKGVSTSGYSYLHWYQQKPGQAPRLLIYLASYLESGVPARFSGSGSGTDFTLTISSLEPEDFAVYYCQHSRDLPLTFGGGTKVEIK

| Kd (cyno PD-1_Fc (cyno)) [nM] | IFNγ in supernatant, 0.01 nM IgG (IgG control, baseline of the fold change) [1] [pg/mL] | IFNγ in supernatant, 0.1 nM IgG (IgG control, baseline of the fold change) [1] [pg/mL] | IFNγ in supernatant, 1 nM IgG (IgG control, baseline of the fold change) [1] [pg/mL] | IFNγ in supernatant, 10 nM IgG (IgG control, baseline of the fold change) [1] [pg/mL] | IFNγ in supernatant, 100 nM IgG (IgG control, baseline of the fold change) [1] [pg/mL] | IL-2 in supernatant, 0.01 nM IgG (IgG control, baseline of the fold change) [1] [pg/mL] | IL-2 in supernatant, 0.1 nM IgG (IgG control, baseline of the fold change) [1] [pg/mL] | IL-2 in supernatant, 1 nM IgG (IgG control, baseline of the fold change) [1] [pg/mL] | IL-2 in supernatant, 10 nM IgG (IgG control, baseline of the fold change) [1] [pg/mL] | IL-2 in supernatant, 100 nM IgG (IgG control, baseline of the fold change) [1] [pg/mL] | MFI (PD-L2-FITC) [2] [MFI] | Substance |
| --- | --- | --- | --- | --- | --- | --- | --- | --- | --- | --- | --- | --- |
| 1.2 | – | – | – | – | – | – | – | – | – | – | – | Fab of nivolumab |
| 0.47 | – | – | – | – | – | – | – | – | – | – | – | Fab of pembrolizumab |
| – | 14900 | 11000 | 11600 | 13500 | 14900 | 515 | 509 | 500 | 522 | 619 | 183000 | IgG Control (antibody) |
